Test results from the supplement of paper PMC10126150.
± gives the standard deviation of the averaged measurements.

Test system: ATP
Assay: switch fluorescence ratio, 500 uM ATP over buffer (Cy3 cluster intensity, sum of 5 cycles each) (fold (ratio)); higher = stronger signal-on switching upon ATP binding; sequences stand for … in TCGTCGGCAGCGTCAGATGTGTATAAGAGACAGTTTTTTTTTTTTTTTTTTTTTTTTT…TC
Conditions: aptamer strand: ATP DNA aptamer (quencher-CACCTGGGGGAGTATTGCGGAGGAAGG + anchor), 100 nM annealed; ATP concentration: 500 uM
Summary of the method: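 Cy3-labelled switching-strand clusters on a modified Illumina MiSeq flow-cell were annealed to 100 nM quencher-labelled ATP aptamer and imaged first in selection buffer, then after 15 min with 500 uM ATP at 22 °C. NaOH stripping and re-annealing separated each of five buffer/ATP cycles, and clusters outside 100-1000 RFU were excluded. The fluorescence ratio sums target-cycle Cy3 intensity over buffer-cycle Cy3 intensity per cluster and averages it per switch-domain sequence.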
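Note: ATP exposure 15 min at 22 °C before imaging.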

| Sequence | switch fluorescence ratio |
| --- | --- |
| AGGGTCATCT | 1.012 ± 0.002 |
| AGGGTCGACT | 1.033 ± 0.0095 |
| AGGGTCGGTA | 1.02 ± 0.033 |
| AGGGTCTCAT | 1.02 ± 0.022 |
| AGGGTCTTGA | 1.007 ± 0.0017 |
| AGGGTGAATG | 1 ± 0.0097 |
| AGGGTGATTA | 1.01 ± 0.018 |
| AGGGTGCGGA | 0.989 ± 0.036 |
| AGGGTGGGCT | 0.996 ± 0.012 |
| AGGGTGTGCA | 0.999 ± 0.049 |
| AGGGTGTGTC | 1.007 ± 0.0098 |
| AGGGTTAGGG | 1.02 ± 0.03 |
| AGGGTTAGTT | 1.01 ± 0.013 |
| AGGGTTCGAC | 1.01 ± 0.039 |
| AGGGTTGGCT | 1.02 ± 0.052 |
| AGGGTTGGTA | 1.01 ± 0.011 |
| AGGGTTGTGA | 1 ± 0.026 |
| AGGGTTTTCG | 0.972 ± 0.022 |
| AGGTAAAGGC | 1.02 ± 0.022 |
| AGGTAAAGTA | 0.915 ± 0.025 |
| AGGTAACGGG | 0.987 ± 0.0099 |
| AGGTAAGAGG | 0.96 ± 0.026 |
| AGGTAAGTGC | 1.025 ± 0.0017 |
| AGGTAATGGT | 0.998 ± 0.039 |
| AGGTAATTAG | 1 ± 0.012 |

| Sequence | switch fluorescence ratio |
| --- | --- |
| AGGTACTCCG | 1.09 ± 0.015 |
| AGGTAGAGGA | 1.01 ± 0.035 |
| AGGTAGTTTG | 0.9979 ± 0.0018 |
| AGGTAGTTTT | 0.982 ± 0.011 |
| AGGTATAGGA | 1.01 ± 0.013 |
| AGGTCAAGAA | 1.07 ± 0.079 |
| AGGTCAGCCT | 1.03 ± 0.029 |
| AGGTCAGCTG | 0.99 ± 0.018 |
| AGGTCGGCAA | 1.02 ± 0.014 |
| AGGTCGGCTT | 1.006 ± 0.0024 |
| AGGTCGGGCG | 0.982 ± 0.026 |
| AGGTCTAGAC | 1.04 ± 0.0095 |
| AGGTCTAGAG | 0.976 ± 0.024 |
| AGGTCTCTTT | 0.982 ± 0.021 |
| AGGTCTGGCA | 0.995 ± 0.016 |
| AGGTGACAGT | 0.982 ± 0.021 |
| AGGTGACGAG | 1.02 ± 0.014 |
| AGGTGAGGGC | 1.02 ± 0.015 |
| AGGTGATGGT | 0.997 ± 0.023 |
| AGGTGCATAA | 1.05 ± 0.017 |
| AGGTGCTACG | 1.03 ± 0.012 |
| AGGTGCTCAT | 1.02 ± 0.036 |
| AGGTGCTTGA | 0.975 ± 0.078 |
| AGGTGGGATT | 1.02 ± 0.033 |
| AGGTGGGCGG | 0.969 ± 0.022 |

| Sequence | switch fluorescence ratio |
| --- | --- |
| AGGTGGGGTT | 0.996 ± 0.051 |
| AGGTGGGTGG | 1.02 ± 0.04 |
| AGGTGGTCGG | 0.966 ± 0.038 |
| AGGTGGTTTT | 1.014 ± 0.0041 |
| AGGTGTAATT | 0.987 ± 0.031 |
| AGGTGTATGT | 1.01 ± 0.061 |
| AGGTGTCGTC | 0.975 ± 0.018 |
| AGGTGTGTAG | 0.99 ± 0.032 |
| AGGTGTTAGC | 0.955 ± 0.046 |
| AGGTTAAGGA | 1.04 ± 0.087 |
| AGGTTAATAT | 1 ± 0.043 |
| AGGTTACCGG | 0.987 ± 0.019 |
| AGGTTAGAGG | 0.993 ± 0.016 |
| AGGTTATGCA | 1.01 ± 0.032 |
| AGGTTATGGG | 1.04 ± 0.082 |
| AGGTTATTA | 0.9856 ± 0.0031 |
| AGGTTATTAT | 0.999 ± 0.029 |
| AGGTTCAGCA | 1 ± 0.013 |
| AGGTTGAAG | 0.976 ± 0.034 |
| AGGTTGAAGC | 0.993 ± 0.017 |
| AGGTTGAGGG | 0.984 ± 0.025 |
| AGGTTGCGAT | 1.01 ± 0.013 |
| AGGTTGCTCT | 0.9947 ± 0.0098 |
| AGGTTGGGTG | 1.05 ± 0.013 |
| AGGTTGGGTT | 0.997 ± 0.023 |

| Sequence | switch fluorescence ratio |
| --- | --- |
| AGGTTGTAAT | 1 ± 0.016 |
| AGGTTGTCAA | 0.969 ± 0.028 |
| AGGTTTAGTA | 1.02 ± 0.015 |
| AGGTTTGGCT | 1.01 ± 0.028 |
| AGGTTTGGTT | 1.01 ± 0.04 |
| AGGTTTGTAG | 0.983 ± 0.013 |
| AGGTTTTTAG | 0.944 ± 0.024 |
| AGGTTTTTCA | 0.983 ± 0.017 |
| AGGTTTTTCT | 0.987 ± 0.024 |
| AGTAAAAAGG | 0.993 ± 0.021 |
| AGTAAAAAGT | 1.02 ± 0.026 |
| AGTAAAATGG | 1.01 ± 0.038 |
| AGTAAACCAT | 1.04 ± 0.03 |
| AGTAAAGTGC | 1.03 ± 0.045 |
| AGTAAAGTTA | 1.008 ± 0.008 |
| AGTAAATATA | 0.993 ± 0.022 |
| AGTAAATCCT | 1.16 ± 0.0084 |
| AGTAACCGGG | 1.02 ± 0.035 |
| AGTAAGACAG | 0.986 ± 0.08 |
| AGTAAGGTTT | 0.985 ± 0.04 |
| AGTAAGTGGG | 0.956 ± 0.048 |
| AGTAATGGG | 0.97 ± 0.054 |
| AGTAATGTAG | 1 ± 0.037 |
| AGTAATGTTT | 0.994 ± 0.02 |
| AGTAATTTGC | 1.02 ± 0.012 |
